Assays:
Format in all cases: biochemical
[1] = target: T1, Cdk5/p25 (Homo sapiens, UniProt Q00535); test: Ionic liquid-gated FET measurement of solution pH change during Cdk5/p25-catalysed phosphorylation of histone H1, steady state; conditions: FET measurements, non-linear regression, measured differentially against control without ATP
Source text: With regard to enzyme activity and kinetics, the ultrasensitive FET devices measured activity and kinetics of proline directed kinase Cdk5. Under normal physiological conditions, Cdk5 is tightly regulated by either the p35 or p39 […] proteins. Oxidative stress causes a 10 kDa membrane anchored fragment of p35 to be cleaved, forming the pathological activator p25, resulting in deregulation and delocalization of the complex to the cytosol. […]
Cdk5 mediated phosphorylation results in the release of a proton during ATP hydrolysis and the transfer of a single phosphate group to either a serine or threonine residue immediately preceding a proline. Here, ionic liquid-gated FETs detected small changes in the solution pH during phosphorylation of the substrate protein, histone H1.
In each case, Vt,BG was estimated from an ID-VBG plot. To account for instrument drift, each data point in the figure was measured differentially with a control sample that was identical to the measured vials except for the absence of ATP, thereby inhibiting the phosphorylation reaction. […]
[formula] where k is a constant, [H1] is the concentration of histone H1 and γ is a scaling constant. For the FET measurements in FIG. 54, we estimated k=17.5±1.3 μM from a non-linear regression of the model to the measured data, consistent with previously published activity measurements for the pathological Cdk5/p25 complex. […]

[2] = target: T1, Cdk5/p25; test: FET time-series measurement of enzyme catalyzed phosphorylation (reaction kinetics); conditions: Cdk5/p25 3.8 μM; [H1] 9.1, 12.7, 18.2 μM; independent of the histone H1 concentration
Source text: With reference to FIG. 53, FIG. 54, FIG. 55, and FIG. 56, ionic liquid-gate field-effect transistors (FET) were used for label-free enzyme activity and kinetics measurements. The proline directed kinase Cdk5 catalyzes the phosphorylation of substrate proteins (e.g., histone H1) in the presence of an activator (e.g., p25) and adenosine triphosphate (ATP). The hydrolysis of ATP results in the transfer of a single phosphate group to either a serine (Ser) or threonine (Thr) residue in the substrate protein and the release of a proton into solution, resulting in a change in solution pH. Moreover, ionic liquid-gate FETs measured change in solution pH as a function of the histone H1 concentration ([H1]) inferentially provide activity of Cdk5 under steady-state conditions. FET measurements were in quantitative agreement with a complementary assay that used radioactively labeled 32P-ATP as a reporter of Cdk5 activity. Time-series measurements of enzyme catalyzed phosphorylation as a function of [H1] […] The solid lines depict the reaction kinetics model that describes the time course of phosphorylation, while the dashed lines represent an estimate of the reaction velocity during the first 100 s after a change in the signal was detected.
The concentration of the Cdk5/p25 complex in these measurements was 3.8 μM (5-fold lower than the quantity used in FIG. 54 and FIG. 55). […]

[3] = target: T1, Cdk5/p25; test: Radioactively labeled γ-32P-ATP enzyme activity assay; conditions: radioactively labeled γ-32P-ATP assay

T1 sequence (Q00535 whole entry, species assumed, the tested form may be a part): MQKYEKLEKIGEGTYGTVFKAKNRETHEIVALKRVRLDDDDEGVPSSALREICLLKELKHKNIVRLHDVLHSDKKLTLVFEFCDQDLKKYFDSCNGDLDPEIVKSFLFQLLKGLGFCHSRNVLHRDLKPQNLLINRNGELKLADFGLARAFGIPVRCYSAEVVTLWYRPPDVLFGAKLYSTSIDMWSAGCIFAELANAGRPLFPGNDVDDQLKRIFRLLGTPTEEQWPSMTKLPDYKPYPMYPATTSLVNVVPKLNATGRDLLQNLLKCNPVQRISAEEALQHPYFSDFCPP
T1 sequence (Q15078 99-307 partner limits assumed, species assumed): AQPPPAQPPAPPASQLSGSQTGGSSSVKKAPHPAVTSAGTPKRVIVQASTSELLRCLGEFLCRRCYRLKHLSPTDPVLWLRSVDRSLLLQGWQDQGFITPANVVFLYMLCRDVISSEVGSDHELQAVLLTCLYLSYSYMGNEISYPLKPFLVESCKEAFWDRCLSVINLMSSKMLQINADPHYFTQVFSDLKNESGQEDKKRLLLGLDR

histone H1
k (constant of kinase activity model versus histone H1 concentration) [1]: 17.5 ± 1.3 µM
rate constant k1 (first order rate law) [2]: 0.18±0.02 per min
k (constant of kinase activity model versus histone H1 concentration) [3]: 12.1 ± 2.3 µM
